Laboratory results from patent publication US20180155451A1 (published 2018).

T1: FcγRIIb extracellular domain with C-terminal His tag (human, UniProt P31994 43-217)
T1 construct: extracellular domain; also called FcgRIIb; 2b; not shown: His tag attached to the C terminus
T1 sequence (looked up): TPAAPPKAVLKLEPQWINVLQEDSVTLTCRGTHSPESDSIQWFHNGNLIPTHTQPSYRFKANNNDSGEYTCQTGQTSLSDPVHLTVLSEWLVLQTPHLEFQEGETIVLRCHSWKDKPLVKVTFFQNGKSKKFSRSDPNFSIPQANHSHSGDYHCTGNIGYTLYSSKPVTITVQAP

B1: GpH7-A5/GpH7-B3 variant N325_10E/GpL16-k0 (antibody, human IgG1, kappa)
heavy 1: not shown
heavy 2: not shown
light: DIVMTQSPLSLPVTPGEPASISCQASESLVHSNRNTYLHWYLQKPGQSPQLLIYKVSNRFSGVPDRFSGSGSGTDFTLKISRVEAEDVGVYYCSQNTHVPPTFGQGTKVEIERTVAAPSVFIFPPSDEQLKSGTASVVCLLNNFYPREAKVQWKVDNALQSGNSQESVTEQDSKDSTYSLSSTLTLSKADYEKHKVYACEVTHQGLSSPVTKSFNRGEC
notes: Heterodimerized IgG1; alteration in one H chain only; also called He Ab
B2: GpH7-A5/GpH7-B3 variant N325_20W/GpL16-k0 (antibody, human IgG1, kappa)
heavy 1: not shown
heavy 2: not shown
light: B1 light
notes: as for B1
B3: GpH7-A5/GpH7-B3 variant Y300_10E/GpL16-k0 (antibody, human IgG1, kappa)
heavy 1: not shown
heavy 2: not shown
light: B1 light
notes: as for B1
B4: GpH7-A5/GpH7-B3 variant Y296_11K/GpL16-k0 (antibody, human IgG1, kappa)
heavy 1: not shown
heavy 2: not shown
light: B1 light
notes: as for B1
B5: GpH7-A5/GpH7-B3 variant Y296_16H/GpL16-k0 (antibody, human IgG1, kappa)
heavy 1: not shown
heavy 2: not shown
light: B1 light
notes: as for B1
B6: GpH7-A5/GpH7-B3 variant Y296_18N/GpL16-k0 (antibody, human IgG1, kappa)
heavy 1: not shown
heavy 2: not shown
light: B1 light
notes: as for B1
B7: GpH7-A5/GpH7-B3 variant P271_14T/GpL16-k0 (antibody, human IgG1, kappa)
heavy 1: not shown
heavy 2: not shown
light: B1 light
notes: as for B1
B8: GpH7-A5/GpH7-B3 variant N325_13S/GpL16-k0 (antibody, human IgG1, kappa)
heavy 1: not shown
heavy 2: not shown
light: B1 light
notes: as for B1
B9: GpH7-A5/GpH7-B3 variant Y296_14T/GpL16-k0 (antibody, human IgG1, kappa)
heavy 1: not shown
heavy 2: not shown
light: B1 light
notes: as for B1
B10: GpH7-A5/GpH7-B3 variant N325_19Q/GpL16-k0 (antibody, human IgG1, kappa)
heavy 1: not shown
heavy 2: not shown
light: B1 light
notes: as for B1
B11: GpH7-A5/GpH7-B3 variant Y296_01G/GpL16-k0 (antibody, human IgG1, kappa)
heavy 1: not shown
heavy 2: not shown
light: B1 light
notes: as for B1
B12: GpH7-A5/GpH7-B3 variant N325_15Y/GpL16-k0 (antibody, human IgG1, kappa)
heavy 1: not shown
heavy 2: not shown
light: B1 light
notes: as for B1
B13: GpH7-A5/GpH7-B3 variant S324_05P/GpL16-k0 (antibody, human IgG1, kappa)
heavy 1: not shown
heavy 2: not shown
light: B1 light
notes: as for B1
B14: GpH7-A5/GpH7-B3 variant N325_11K/GpL16-k0 (antibody, human IgG1, kappa)
heavy 1: not shown
heavy 2: not shown
light: B1 light
notes: as for B1
B15: GpH7-A5/GpH7-B3 variant Y296_13S/GpL16-k0 (antibody, human IgG1, kappa)
heavy 1: not shown
heavy 2: not shown
light: B1 light
notes: as for B1
B16: GpH7-A5/GpH7-B3 variant N325_14T/GpL16-k0 (antibody, human IgG1, kappa)
heavy 1: not shown
heavy 2: not shown
light: B1 light
notes: as for B1
B17: GpH7-A5/GpH7-B3 variant P271_09D/GpL16-k0 (antibody, human IgG1, kappa)
heavy 1: not shown
heavy 2: not shown
light: B1 light
notes: as for B1
B18: GpH7-A5/GpH7-B3 variant S298_08L/GpL16-k0 (antibody, human IgG1, kappa)
heavy 1: not shown
heavy 2: not shown
light: B1 light
notes: as for B1
B19: GpH7-B3 variant K334_01G/GpL16-k0 (antibody, human IgG1, kappa)
heavy: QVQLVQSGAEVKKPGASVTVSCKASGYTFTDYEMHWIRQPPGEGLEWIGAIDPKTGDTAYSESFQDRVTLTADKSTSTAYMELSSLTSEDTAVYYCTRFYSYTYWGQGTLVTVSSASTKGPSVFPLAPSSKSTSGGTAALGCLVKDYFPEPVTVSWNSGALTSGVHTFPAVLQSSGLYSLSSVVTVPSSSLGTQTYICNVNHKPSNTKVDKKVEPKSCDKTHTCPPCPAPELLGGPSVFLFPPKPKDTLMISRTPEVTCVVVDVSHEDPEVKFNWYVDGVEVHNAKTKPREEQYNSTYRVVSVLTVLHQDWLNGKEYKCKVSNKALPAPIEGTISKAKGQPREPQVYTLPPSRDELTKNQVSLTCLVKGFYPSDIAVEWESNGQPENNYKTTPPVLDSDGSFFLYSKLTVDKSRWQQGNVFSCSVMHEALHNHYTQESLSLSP
light: B1 light
notes: homodimerized antibody, mutation in both H chains; also called K334_01G Ho Ab
B20: GpH7-B3 variant K334_13S/GpL16-k0 (antibody, human IgG1, kappa)
heavy: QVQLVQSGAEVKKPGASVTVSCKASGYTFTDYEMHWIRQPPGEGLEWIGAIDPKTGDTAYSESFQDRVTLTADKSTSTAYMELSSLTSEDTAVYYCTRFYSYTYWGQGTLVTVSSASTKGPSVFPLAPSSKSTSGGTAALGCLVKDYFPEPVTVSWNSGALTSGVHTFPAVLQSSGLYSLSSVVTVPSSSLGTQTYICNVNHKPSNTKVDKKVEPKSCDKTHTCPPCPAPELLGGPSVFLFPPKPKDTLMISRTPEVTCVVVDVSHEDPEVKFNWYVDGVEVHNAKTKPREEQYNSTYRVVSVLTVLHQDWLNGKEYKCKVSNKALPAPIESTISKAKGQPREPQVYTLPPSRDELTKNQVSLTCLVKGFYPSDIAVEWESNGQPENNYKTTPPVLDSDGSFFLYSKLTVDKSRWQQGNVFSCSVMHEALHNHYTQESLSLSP
light: B1 light
notes: homodimerized antibody, mutation in both H chains; also called K334_13S Ho Ab
B21: GpH7-B3 variant K334_08L/GpL16-k0 (antibody, human IgG1, kappa)
heavy: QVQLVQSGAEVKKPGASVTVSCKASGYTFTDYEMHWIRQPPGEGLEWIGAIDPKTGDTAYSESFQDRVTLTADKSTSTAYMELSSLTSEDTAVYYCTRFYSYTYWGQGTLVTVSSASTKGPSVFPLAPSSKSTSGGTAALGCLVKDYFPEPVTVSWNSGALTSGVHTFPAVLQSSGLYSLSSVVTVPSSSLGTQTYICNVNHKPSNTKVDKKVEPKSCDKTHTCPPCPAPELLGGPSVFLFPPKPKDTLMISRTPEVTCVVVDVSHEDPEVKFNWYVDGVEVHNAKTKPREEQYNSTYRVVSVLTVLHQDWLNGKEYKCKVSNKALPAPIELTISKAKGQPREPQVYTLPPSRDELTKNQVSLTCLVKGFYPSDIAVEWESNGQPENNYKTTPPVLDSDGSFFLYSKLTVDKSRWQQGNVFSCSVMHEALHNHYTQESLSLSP
light: B1 light
notes: homodimerized antibody, mutation in both H chains; also called K334_08L Ho Ab
B22: GpH7-B3 variant K334_15Y/GpL16-k0 (antibody, human IgG1, kappa)
heavy: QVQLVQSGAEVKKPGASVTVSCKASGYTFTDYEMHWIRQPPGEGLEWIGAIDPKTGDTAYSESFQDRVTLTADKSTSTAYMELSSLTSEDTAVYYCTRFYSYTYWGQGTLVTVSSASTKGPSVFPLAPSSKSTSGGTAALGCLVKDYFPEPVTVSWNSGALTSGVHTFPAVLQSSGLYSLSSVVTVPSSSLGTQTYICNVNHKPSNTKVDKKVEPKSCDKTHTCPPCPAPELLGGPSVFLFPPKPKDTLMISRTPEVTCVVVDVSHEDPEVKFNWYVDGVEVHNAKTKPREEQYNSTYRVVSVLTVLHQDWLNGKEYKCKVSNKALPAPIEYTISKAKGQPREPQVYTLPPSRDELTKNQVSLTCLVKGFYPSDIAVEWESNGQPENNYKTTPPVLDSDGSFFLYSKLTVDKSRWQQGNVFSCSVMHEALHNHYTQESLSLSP
light: B1 light
notes: homodimerized antibody, mutation in both H chains; also called K334_15Y Ho Ab

molecular target: T1, FcγRIIb extracellular domain with …; test: SPR (Biacore), relative binding
Description: (§1) Analysis of interaction between objective antibody and the FcγR was carried out using Biacore T100 (GE Healthcare). HBS-EP+ (GE Healthcare) was used as the running buffer, and the measurement temperature was set to 25° C. Chips produced by immobilizing the antigen peptide by the amine coupling method to a Series S Sencor Chip CM5 (GE Healthcare), or alternatively, chips produced by allowing preliminarily biotinylated antigen peptides to interact with and immobilize onto a Series S Sensor Chip SA (certified) (GE Healthcare) were used. Antibodies of interest were captured onto an antigen peptide-immobilized chip, and allowed to interact to each FcγR diluted with running buffer. To regenerate and repeatedly use the chip, the antibodies captured on the chip were washed off by reacting 10 mM glycine-HCl, pH 1.5.
(§2) The FcγR-binding activity of each antibody was assessed primarily using as an indicator the FcγR-binding activity and dissociation constant for FcγR.

He/Con_2b (IIb binding) | Binder
95.9 % of GpH7-A5/GpH7-B3/GpL16-k0 (=100) | B1
169 % of GpH7-A5/GpH7-B3/GpL16-k0 (=100) | B2
134 % of GpH7-A5/GpH7-B3/GpL16-k0 (=100) | B3
72.8 % of GpH7-A5/GpH7-B3/GpL16-k0 (=100) | B4
92.2 % of GpH7-A5/GpH7-B3/GpL16-k0 (=100) | B5
91.5 % of GpH7-A5/GpH7-B3/GpL16-k0 (=100) | B6
95.4 % of GpH7-A5/GpH7-B3/GpL16-k0 (=100) | B7
177 % of GpH7-A5/GpH7-B3/GpL16-k0 (=100) | B8
88.2 % of GpH7-A5/GpH7-B3/GpL16-k0 (=100) | B9
69.1 % of GpH7-A5/GpH7-B3/GpL16-k0 (=100) | B10
79.3 % of GpH7-A5/GpH7-B3/GpL16-k0 (=100) | B11
99.5 % of GpH7-A5/GpH7-B3/GpL16-k0 (=100) | B12
94.7 % of GpH7-A5/GpH7-B3/GpL16-k0 (=100) | B13
10.4 % of GpH7-A5/GpH7-B3/GpL16-k0 (=100) | B14
86.3 % of GpH7-A5/GpH7-B3/GpL16-k0 (=100) | B15
91.6 % of GpH7-A5/GpH7-B3/GpL16-k0 (=100) | B16
120 % of GpH7-A5/GpH7-B3/GpL16-k0 (=100) | B17
108 % of GpH7-A5/GpH7-B3/GpL16-k0 (=100) | B18

molecular target: T2, FcγRIIIa extracellular domain with C-terminal His tag (human, UniProt P08637 17-208); test: SPR (Biacore), relative binding
T2 construct: extracellular domain; also called FcgRIIIa; 3a; not shown: His tag attached to the C terminus
T2 sequence (P08637 17-208): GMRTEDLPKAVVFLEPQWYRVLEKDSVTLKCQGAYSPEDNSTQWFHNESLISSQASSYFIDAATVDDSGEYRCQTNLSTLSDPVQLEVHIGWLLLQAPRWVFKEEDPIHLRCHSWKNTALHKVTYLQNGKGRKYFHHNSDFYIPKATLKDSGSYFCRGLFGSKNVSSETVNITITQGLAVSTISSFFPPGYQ
Description: as §1, §2

He/Con_3a (IIIa binding) | Binder
38.2 % of GpH7-A5/GpH7-B3/GpL16-k0 (=100) | B1
32.8 % of GpH7-A5/GpH7-B3/GpL16-k0 (=100) | B2
104 % of GpH7-A5/GpH7-B3/GpL16-k0 (=100) | B3
56.7 % of GpH7-A5/GpH7-B3/GpL16-k0 (=100) | B4
73.4 % of GpH7-A5/GpH7-B3/GpL16-k0 (=100) | B5
72.1 % of GpH7-A5/GpH7-B3/GpL16-k0 (=100) | B6
56.4 % of GpH7-A5/GpH7-B3/GpL16-k0 (=100) | B7
65.1 % of GpH7-A5/GpH7-B3/GpL16-k0 (=100) | B8
64.5 % of GpH7-A5/GpH7-B3/GpL16-k0 (=100) | B9
31.6 % of GpH7-A5/GpH7-B3/GpL16-k0 (=100) | B10
54.5 % of GpH7-A5/GpH7-B3/GpL16-k0 (=100) | B11
29.5 % of GpH7-A5/GpH7-B3/GpL16-k0 (=100) | B12
65.5 % of GpH7-A5/GpH7-B3/GpL16-k0 (=100) | B13
5.2 % of GpH7-A5/GpH7-B3/GpL16-k0 (=100) | B14
61.8 % of GpH7-A5/GpH7-B3/GpL16-k0 (=100) | B15
39.4 % of GpH7-A5/GpH7-B3/GpL16-k0 (=100) | B16
93.1 % of GpH7-A5/GpH7-B3/GpL16-k0 (=100) | B17
73.5 % of GpH7-A5/GpH7-B3/GpL16-k0 (=100) | B18

molecular target: T2, FcγRIIIa extracellular domain with …; test: SPR (Biacore); He/Con_3a divided by He/Con_2b (reference: binding to FcγRIIb)
Description: as §1, §2

He_3a/2b (IIIa/IIb) | Binder
0.4 ratio | B1
0.19 ratio | B2
0.78 ratio | B3
0.78 ratio | B4
0.8 ratio | B5
0.79 ratio | B6
0.59 ratio | B7
0.37 ratio | B8
0.73 ratio | B9
0.46 ratio | B10
0.69 ratio | B11
0.3 ratio | B12
0.69 ratio | B13
0.5 ratio | B14
0.72 ratio | B15
0.43 ratio | B16
0.77 ratio | B17
0.68 ratio | B18

molecular target: T3, FcγRIa extracellular domain with C-terminal His tag (human, UniProt P12314 16-292); test: SPR (Biacore), relative FcγRIa binding, GpH7-B3/GpL16-k0 (HoCon Ab) = 100
T3 construct: extracellular domain; soluble analyte in Biacore; also called FcgRI; CD64
T3 sequence (P12314 16-292): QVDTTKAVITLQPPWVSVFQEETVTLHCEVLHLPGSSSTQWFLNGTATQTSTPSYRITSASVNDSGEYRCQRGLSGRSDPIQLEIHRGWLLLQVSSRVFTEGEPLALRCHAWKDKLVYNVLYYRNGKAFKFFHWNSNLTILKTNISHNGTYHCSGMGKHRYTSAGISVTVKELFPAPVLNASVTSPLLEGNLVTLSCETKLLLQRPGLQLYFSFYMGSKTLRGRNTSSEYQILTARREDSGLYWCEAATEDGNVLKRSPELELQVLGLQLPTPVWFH

Ho/Con_1a | Binder
106 % of control | B19
106 % of control | B20
108 % of control | B21
107 % of control | B22
